According to PMC8184850, “Cryo-EM structure of TFIIH/Rad4–Rad23–Rad33 in damaged DNA opening in nucleotide excision repair” (Nature Communications, 2021):

T1: Rad3 (yeast, UniProt P06839 1-778)
T1 construct: Rad3 (XPD homologue), subunit of yeast coreTFIIH; Stood in the assays as part of coreTFIIH; also called yeast homologue of XPD; source: purified from yeast as a subunit of coreTFIIH
T1 sequence (looked up): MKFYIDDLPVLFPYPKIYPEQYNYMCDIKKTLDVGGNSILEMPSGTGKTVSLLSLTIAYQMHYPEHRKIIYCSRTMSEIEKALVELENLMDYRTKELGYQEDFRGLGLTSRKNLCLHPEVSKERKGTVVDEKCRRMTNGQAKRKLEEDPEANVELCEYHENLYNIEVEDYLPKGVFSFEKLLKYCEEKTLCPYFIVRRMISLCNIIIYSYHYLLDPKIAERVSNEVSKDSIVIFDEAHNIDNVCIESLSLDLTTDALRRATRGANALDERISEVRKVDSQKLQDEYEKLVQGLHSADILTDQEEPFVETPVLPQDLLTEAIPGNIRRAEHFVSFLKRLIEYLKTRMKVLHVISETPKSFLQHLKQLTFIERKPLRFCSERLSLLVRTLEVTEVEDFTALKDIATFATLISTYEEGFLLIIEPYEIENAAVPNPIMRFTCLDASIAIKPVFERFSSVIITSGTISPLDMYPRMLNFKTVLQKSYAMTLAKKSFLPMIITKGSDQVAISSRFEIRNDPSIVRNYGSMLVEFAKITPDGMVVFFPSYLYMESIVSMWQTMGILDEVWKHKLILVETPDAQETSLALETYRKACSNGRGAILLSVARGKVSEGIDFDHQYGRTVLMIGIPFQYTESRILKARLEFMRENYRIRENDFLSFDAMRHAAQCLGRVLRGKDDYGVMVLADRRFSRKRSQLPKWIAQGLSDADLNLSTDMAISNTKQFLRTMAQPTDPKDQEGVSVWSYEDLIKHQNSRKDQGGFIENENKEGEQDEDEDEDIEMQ

T2: Rad4–Rad23–Rad33 complex (yeast, UniProt P14736 1-754; P32628 1-398; Q04231 1-177)
T2 construct: Rad4 (XPC homologue), yeast; Rad23 (RAD23B homologue), yeast; Rad33 (CETN2 homologue), yeast; plasmid pETDuet-RAD33; also called Rad4–23–33; yeast homologue of XPC–RAD23B–CETN2; copies: + +
T2 sequence 1: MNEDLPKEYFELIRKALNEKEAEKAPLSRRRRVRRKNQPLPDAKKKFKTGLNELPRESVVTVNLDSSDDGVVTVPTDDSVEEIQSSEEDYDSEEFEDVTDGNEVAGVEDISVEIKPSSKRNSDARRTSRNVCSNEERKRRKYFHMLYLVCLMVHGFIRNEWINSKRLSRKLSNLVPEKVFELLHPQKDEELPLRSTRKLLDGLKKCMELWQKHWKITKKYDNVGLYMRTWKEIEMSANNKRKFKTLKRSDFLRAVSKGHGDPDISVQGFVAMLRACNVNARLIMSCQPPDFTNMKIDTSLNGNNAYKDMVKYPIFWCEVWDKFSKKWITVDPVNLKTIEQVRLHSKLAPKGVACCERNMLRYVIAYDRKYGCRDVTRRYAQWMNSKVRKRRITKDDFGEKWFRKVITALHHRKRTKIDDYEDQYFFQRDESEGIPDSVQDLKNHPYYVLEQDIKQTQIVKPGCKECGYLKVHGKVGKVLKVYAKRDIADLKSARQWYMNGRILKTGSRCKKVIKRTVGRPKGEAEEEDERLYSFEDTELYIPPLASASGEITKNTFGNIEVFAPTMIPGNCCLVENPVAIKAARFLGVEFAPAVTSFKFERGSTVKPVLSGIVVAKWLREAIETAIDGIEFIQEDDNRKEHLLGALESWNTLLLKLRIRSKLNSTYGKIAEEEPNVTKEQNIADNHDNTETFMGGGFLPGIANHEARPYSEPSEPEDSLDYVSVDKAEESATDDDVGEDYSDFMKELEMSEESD
T2 sequence 2: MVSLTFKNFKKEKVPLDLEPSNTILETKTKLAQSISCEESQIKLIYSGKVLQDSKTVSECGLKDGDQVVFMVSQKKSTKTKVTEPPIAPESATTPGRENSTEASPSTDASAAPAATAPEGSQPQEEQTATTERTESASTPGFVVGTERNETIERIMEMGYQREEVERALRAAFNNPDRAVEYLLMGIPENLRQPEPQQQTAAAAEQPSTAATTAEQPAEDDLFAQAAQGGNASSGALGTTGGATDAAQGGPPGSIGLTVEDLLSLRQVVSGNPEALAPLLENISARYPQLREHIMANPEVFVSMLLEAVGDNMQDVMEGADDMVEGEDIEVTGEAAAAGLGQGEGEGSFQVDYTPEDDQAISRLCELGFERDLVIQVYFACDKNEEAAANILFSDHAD
T2 sequence 3: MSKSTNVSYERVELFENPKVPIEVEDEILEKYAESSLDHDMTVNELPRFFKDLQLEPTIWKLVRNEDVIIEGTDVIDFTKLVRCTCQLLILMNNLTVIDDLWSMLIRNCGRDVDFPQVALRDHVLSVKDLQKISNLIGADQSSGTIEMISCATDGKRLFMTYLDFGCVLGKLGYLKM

B1: Ssl1 (natural protein, yeast, UniProt Q04673 1-461, looked up)
chain: MAPVVISESEEDEDRVAITRRTKRQVHFDGEGDDRVDQQQQQHSSSHRDRDKHVQRKKKKRLSNRNLQGSNGGYAWEDEIKRSWDLVKVDDEGDMASLVASIVEARKKRTAKKNITPYQRGIIRSLILTLDCSEAMLEKDLRPNRHAMIIQYAIDFVHEFFDQNPISQMGIIIMRNGLAQLVSQVSGNPQDHIDALKSIRKQEPKGNPSLQNALEMARGLLLPVPAHCTREVLIVFGSLSTTDPGDIHQTIDSLVSEKIRVKVLGLSAQVAICKELCKATNYGDESFYKILLDETHLKELFNEAVTPLPVNKINKGFTLVKMGFPTRIFEDTPTFCSCHSKLVYGGYFCPNCHSKVCSLPTVCPCCDLMLILSTHLARSYHHLMPLKTFAEVPTTEKFRSEDCFSCQSRFPILKNHKNGKLLTSSRYRCEDCKQEFCVDCDVFIHEILHNCPGCESKPVIT
notes: Ssl1 (p44 homologue), subunit of yeast coreTFIIH; Stood in the assays as part of coreTFIIH; also called yeast homologue of p44; source: purified from yeast as a subunit of coreTFIIH
B2: Tfb2 (natural protein, yeast, UniProt Q02939 1-513, looked up)
chain: MSDYSLKHSVTQYLEEIPQQVQNRLYTSPATCLAIYRILPPLAKFFIMAMVFNENEVPLLDLDKWVNSNGKLQFQNAIKSMKSLHLLIPNKSSGTLMINLNPTFKISLRNALTGGEVQNSFGVVVEENVVSLDLLDEYSANKWETILHFMVGTPLAKIPSEKVLNLLKHSKLMEEVNSTGEFKITNEGFQFLLQEINSQLWTLLLQYLKMIETSKMDLVDVLHFIFMLGALEVGKAYKIDALSETQRIMLQDMRDYGLVFQKHSNDSIFYPTKLALMLTSDTKTIRSASNAMDSVLRQNREEPSVNEDGANGKSTTDITTSDDLNKAGLKNQDIPDGSLIVETNFKIYSYSNSPLQIAVLSLFVHLKARFVNMVLGQITRESIRRALTNGITADQIIAYLETHAHPQMRRLAEEKLEKKLELDPNCKEPLQVLPPTVVDQIRLWQLELDRVITYEGSLYSDFETSQEYNLLSKYAQDIGVLLWKDDKKKKFFISKEGNSQVLDFAKRKLKKKQ
notes: Tfb2 (p52 homologue), subunit of yeast coreTFIIH; Tfb2C 412–513 as printed; Stood in the assays as part of coreTFIIH; also called yeast homologue of p52; source: purified from yeast as a subunit of coreTFIIH
B3: Ssl2 (natural protein, Saccharomyces cerevisiae, UniProt Q00578 1-843, looked up)
chain: MTDVEGYQPKSKGKIFPDMGESFFSSDEDSPATDAEIDENYDDNRETSEGRGERDTGAMVTGLKKPRKKTKSSRHTAADSSMNQMDAKDKALLQDTNSDIPADFVPDSVSGMFRSHDFSYLRLRPDHASRPLWISPSDGRIILESFSPLAEQAQDFLVTIAEPISRPSHIHEYKITAYSLYAAVSVGLETDDIISVLDRLSKVPVAESIINFIKGATISYGKVKLVIKHNRYFVETTQADILQMLLNDSVIGPLRIDSDHQVQPPEDVLQQQLQQTAGKPATNVNPNDVEAVFSAVIGGDNEREEEDDDIDAVHSFEIANESVEVVKKRCQEIDYPVLEEYDFRNDHRNPDLDIDLKPSTQIRPYQEKSLSKMFGNGRARSGIIVLPCGAGKTLVGITAACTIKKSVIVLCTSSVSVMQWRQQFLQWCTLQPENCAVFTSDNKEMFQTESGLVVSTYSMVANTRNRSHDSQKVMDFLTGREWGFIILDEVHVVPAAMFRRVVSTIAAHAKLGLTATLVREDDKIGDLNFLIGPKLYEANWMELSQKGHIANVQCAEVWCPMTAEFYQEYLRETARKRMLLYIMNPTKFQACQFLIQYHERRGDKIIVFSDNVYALQEYALKMGKPFIYGSTPQQERMNILQNFQYNDQINTIFLSKVGDTSIDLPEATCLIQISSHYGSRRQEAQRLGRILRAKRRNDEGFNAFFYSLVSKDTQEMYYSTKRQAFLVDQGYAFKVITHLHGMENIPNLAYASPRERRELLQEVLLKNEEAAGIEVGDDADNSVGRGSNGHKRFKSKAVRGEGSLSGLAGGEDMAYMEYSTNKNKELKEHHPLIRKMYYKNLKK
notes: Ssl2 (XPB homologue), subunit of yeast coreTFIIH; C-Ssl2 549–776, C-terminal region 771–843 as printed; Stood in the assays as part of coreTFIIH; also called yeast homologue of XPB; source: purified from yeast as a subunit of coreTFIIH

How the values were obtained:
Conditions in all cases: both partners purified
Rad3 = target: T1, Rad3; assay: cryo-EM structure; coreTFIIH and Rad4–Rad23–Rad33 on −24*/+24 AAF-DNA with ATP, glycerol gradient with glutaraldehyde; Map 1 3.86 Å (TFIIH), Map 2 9.2 Å, Map 3 7.9 Å; Rad4, Rad33 and the Tfb1 PH domain placed by rigid-body docking of known structures or homology models
Ssl2 = target: B3; assay: as above
Rad4–Rad23–Rad33 complex = target: T2, Rad4–Rad23–Rad33 complex; assay: cross-linking; XL-MS: TFIIH/Rad4–Rad23–Rad33 assembled on −24/+24 AAF-DNA, 1 mg/mL in 20 mM HEPES pH 7.6, 300 mM potassium acetate, 5% glycerol, 5 mM DTT; 6 mM DSBU on ice 2 h; MeroX, FDR <1%

B1: binds (Rad3).

B2: binds (Ssl2).

B3: binds (Rad4–Rad23–Rad33 complex).
